This is an account of results in patent US20240058441A1 (published 2024).

The assay concerns the target KRas protein (purified) (UniProt P01116 1-186). In words: SPR.

B1: TKDm molecule (control molecule of TKD with mutated CTM, CTMmt, incapable of being recognized by lysosome) (VHH)
VHH: DVQLQESGGGLVQAGGSLRLSCVASGRTFSTYPTGWFRQAPGKEREFVARINLSGGITNYADSVKGRFTISRDNAKNTVYLQMNSLKPEDTAVYYCGGGSTTWAGGIPTNFDYWGQGTQVTVSS
In general, Kd refers to the constant that tells how readily two partners part at equilibrium. Lower therefore signals a tighter complex. In the case of B1, the affinity, expressed as Kd, was 1.09 nM.

B2: TKD molecule (nanobody-mediated KRas protein targeting degradation system; fusion protein BR2 - anti-KRas nanobody VHH - CTM) (VHH)
VHH: DVQLQESGGGLVQAGGSLRLSCVASGRTFSTYPTGWFRQAPGKEREFVARINLSGGITNYADSVKGRFTISRDNAKNTVYLQMNSLKPEDTAVYYCGGGSTTWAGGIPTNFDYWGQGTQVTVSS
Turning to B2, binding was put at a Kd of 7.24 nM.
